Details in all cases: 50 mM Tris-HCl pH 8.0, 0.1 mM FMN, 30 °C
Substrate in data set [1]: O=C(O)CO
Description: purified protein.

Substrate in data set [2]: C[C@H](O)C(=O)O
The experiment in a line: purified protein.

Substrate in data set [3]: CCCCCCC(O)C(=O)O
Description: H2O2 detection, horseradish peroxidase / o-dianisidine coupled assay. Type of data set: biochemical, Arabidopsis thaliana.

Substrate in data set [4]: CCCCCCC(O)C(=O)O
Description: H2O2 detection, horseradish peroxidase / o-dianisidine coupled assay on ZmGO1
The description is as above. Type of data set: biochemical, Zea mays.

B1: AtGOX1 (Arabidopsis thaliana; T265D) (protein)
chain: MEITNVTEYDAIAKQKLPKMVYDYYASGAEDQWTLQENRNAFARILFRPRILIDVSKIDMTTTVLGFKISMPIMVAPTAMQKMAHPDGEYATARAASAAGTIMTLSSWATSSVEEVASTGPGIRFFQLYVYKNRNVVEQLVRRAERAGFKAIALTVDTPRLGRRESDIKNRFTLPPNLTLKNFEGLDLGKMDEANDSGLASYVAGQIDRTLSWKDVQWLQTITKLPILVKGVLTGEDARIAIQAGAAGIIVSNHGARQLDYVPADISALEEVVKATQGRIPVFLDGGVRRGTDVFKALALGASGIFIGRPVVFSLAAEGEAGVRKVLQMLRDEFELTMALSGCRSLKEISRNHITTEWDTPRPSARL
Consider B1, for which, in “purified protein [1]”, the Michaelis constant (Km) was 531 ± 50 µM and the turnover number (kcat) is 0.14 ± 0.06 s⁻¹.

B2: AtGOX1 (Arabidopsis thaliana; T4D) (protein)
chain: MEIDNVTEYDAIAKQKLPKMVYDYYASGAEDQWTLQENRNAFARILFRPRILIDVSKIDMTTTVLGFKISMPIMVAPTAMQKMAHPDGEYATARAASAAGTIMTLSSWATSSVEEVASTGPGIRFFQLYVYKNRNVVEQLVRRAERAGFKAIALTVDTPRLGRRESDIKNRFTLPPNLTLKNFEGLDLGKMDEANDSGLASYVAGQIDRTLSWKDVQWLQTITKLPILVKGVLTGEDARIAIQAGAAGIIVSNHGARQLDYVPATISALEEVVKATQGRIPVFLDGGVRRGTDVFKALALGASGIFIGRPVVFSLAAEGEAGVRKVLQMLRDEFELTMALSGCRSLKEISRNHITTEWDTPRPSARL
As to B2, in the data set “purified protein [1]”, the Km was determined as 151 ± 44 µM and the kcat was 0.61 ± 0.46 s⁻¹.

B3: AtGOX1 (Arabidopsis thaliana; T158V) (protein)
chain: MEITNVTEYDAIAKQKLPKMVYDYYASGAEDQWTLQENRNAFARILFRPRILIDVSKIDMTTTVLGFKISMPIMVAPTAMQKMAHPDGEYATARAASAAGTIMTLSSWATSSVEEVASTGPGIRFFQLYVYKNRNVVEQLVRRAERAGFKAIALTVDVPRLGRRESDIKNRFTLPPNLTLKNFEGLDLGKMDEANDSGLASYVAGQIDRTLSWKDVQWLQTITKLPILVKGVLTGEDARIAIQAGAAGIIVSNHGARQLDYVPATISALEEVVKATQGRIPVFLDGGVRRGTDVFKALALGASGIFIGRPVVFSLAAEGEAGVRKVLQMLRDEFELTMALSGCRSLKEISRNHITTEWDTPRPSARL
For the protein B3, in “purified protein [1]”, the Km amounted to 100 ± 19 µM and the kcat was determined as 2.36 ± 0.47 s⁻¹.

B4: AtGOX1 (Arabidopsis thaliana) (protein)
chain: MEITNVTEYDAIAKQKLPKMVYDYYASGAEDQWTLQENRNAFARILFRPRILIDVSKIDMTTTVLGFKISMPIMVAPTAMQKMAHPDGEYATARAASAAGTIMTLSSWATSSVEEVASTGPGIRFFQLYVYKNRNVVEQLVRRAERAGFKAIALTVDTPRLGRRESDIKNRFTLPPNLTLKNFEGLDLGKMDEANDSGLASYVAGQIDRTLSWKDVQWLQTITKLPILVKGVLTGEDARIAIQAGAAGIIVSNHGARQLDYVPATISALEEVVKATQGRIPVFLDGGVRRGTDVFKALALGASGIFIGRPVVFSLAAEGEAGVRKVLQMLRDEFELTMALSGCRSLKEISRNHITTEWDTPRPSARL
notes: full length (367 residues), N-terminal His-tag, pET28a, expressed in Escherichia coli
Turning to B4, the Michaelis constant (Km) is 1664 ± 293 µM in the data set “purified protein [2]”, 210 ± 90 µM in “purified protein [1]” and 757 ± 82 µM in data set [3]. The turnover number (kcat) in the data set “purified protein [2]” came out at 9.09 s⁻¹; in “purified protein [1]”, 11.12 ± 3.08 s⁻¹; in data set [3], 5.95 ± 0.58 s⁻¹.

B5: AtGOX2 (Arabidopsis thaliana; T265D) (protein)
chain: MEITNVTEYDAIAKAKLPKMVYDYYASGAEDQWTLQENRNAFARILFRPRILIDVNKIDMATTVLGFKISMPIMVAPTAFQKMAHPDGEYATARAASAAGTIMTLSSWATSSVEEVASTGPGIRFFQLYVYKNRKVVEQLVRRAEKAGFKAIALTVDTPRLGRRESDIKNRFTLPPNLTLKNFEGLDLGKMDEANDSGLASYVAGQIDRTLSWKDIQWLQTITNMPILVKGVLTGEDARIAIQAGAAGIIVSNHGARQLDYVPADISALEEVVKATQGRVPVFLDGGVRRGTDVFKALALGASGIFIGRPVVFALAAEGEAGVKKVLQMLRDEFELTMALSGCRSLSEITRNHIVTEWDTPRHLPRL
B5: in “purified protein [1]”, the Km amounted to 388 ± 159 µM and the kcat was found to be 2.06 ± 1.09 s⁻¹.

B6: AtGOX2 (Arabidopsis thaliana; T158V) (protein)
chain: MEITNVTEYDAIAKAKLPKMVYDYYASGAEDQWTLQENRNAFARILFRPRILIDVNKIDMATTVLGFKISMPIMVAPTAFQKMAHPDGEYATARAASAAGTIMTLSSWATSSVEEVASTGPGIRFFQLYVYKNRKVVEQLVRRAEKAGFKAIALTVDVPRLGRRESDIKNRFTLPPNLTLKNFEGLDLGKMDEANDSGLASYVAGQIDRTLSWKDIQWLQTITNMPILVKGVLTGEDARIAIQAGAAGIIVSNHGARQLDYVPATISALEEVVKATQGRVPVFLDGGVRRGTDVFKALALGASGIFIGRPVVFALAAEGEAGVKKVLQMLRDEFELTMALSGCRSLSEITRNHIVTEWDTPRHLPRL
Consider B6, for which, in the data set “purified protein [1]”, the Michaelis-Menten constant (Km) stood at 133 ± 83 µM and the turnover number (kcat) was 2.49 ± 0.60 s⁻¹.

B7: AtGOX2 (Arabidopsis thaliana; T4D) (protein)
chain: MEIDNVTEYDAIAKAKLPKMVYDYYASGAEDQWTLQENRNAFARILFRPRILIDVNKIDMATTVLGFKISMPIMVAPTAFQKMAHPDGEYATARAASAAGTIMTLSSWATSSVEEVASTGPGIRFFQLYVYKNRKVVEQLVRRAEKAGFKAIALTVDTPRLGRRESDIKNRFTLPPNLTLKNFEGLDLGKMDEANDSGLASYVAGQIDRTLSWKDIQWLQTITNMPILVKGVLTGEDARIAIQAGAAGIIVSNHGARQLDYVPATISALEEVVKATQGRVPVFLDGGVRRGTDVFKALALGASGIFIGRPVVFALAAEGEAGVKKVLQMLRDEFELTMALSGCRSLSEITRNHIVTEWDTPRHLPRL
Consider B7, for which, in the data set “purified protein [1]”, the Michaelis constant (Km) is reported as 390 ± 215 µM and the catalytic constant (kcat) is 1.40 ± 0.42 s⁻¹.

B8: AtGOX2 (Arabidopsis thaliana) (protein)
chain: MEITNVTEYDAIAKAKLPKMVYDYYASGAEDQWTLQENRNAFARILFRPRILIDVNKIDMATTVLGFKISMPIMVAPTAFQKMAHPDGEYATARAASAAGTIMTLSSWATSSVEEVASTGPGIRFFQLYVYKNRKVVEQLVRRAEKAGFKAIALTVDTPRLGRRESDIKNRFTLPPNLTLKNFEGLDLGKMDEANDSGLASYVAGQIDRTLSWKDIQWLQTITNMPILVKGVLTGEDARIAIQAGAAGIIVSNHGARQLDYVPATISALEEVVKATQGRVPVFLDGGVRRGTDVFKALALGASGIFIGRPVVFALAAEGEAGVKKVLQMLRDEFELTMALSGCRSLSEITRNHIVTEWDTPRHLPRL
notes: full length, N-terminal His-tag, pET28a, expressed in Escherichia coli
Consider B8, for which the Km is 2094 ± 791 µM in the data set “purified protein [2]”, 279 ± 30 µM in “purified protein [1]” and 487 ± 99 µM in data set [3]. For the same protein, the kcat in “purified protein [2]” came out at 6.81 s⁻¹; in “purified protein [1]”, 10.93 ± 3.48 s⁻¹; in data set [3], 3.78 ± 1.26 s⁻¹.

B9: ZmGO1 (Zea mays) (protein)
chain: MGEITNVMEYQAIAKQKLPKMAYDYYASGAEDEWTLQENREAFSRILFRPRILIDVSKIDMTTTVLGFKISMPIMVAPTAMQKMAHPDGEYATARAAAAAGTIMTLSSWATSSVEEVASTGPGIRFFQLYVYKDRKVVEQLVRRAERAGFKAIALTVDTPRLGRREADIKNRFVLPPHLTLKNFEGLDLGKMDQAADSGLASYVAGQVDRTLSWKDVKWLQTITTLPILVKGVLTAEDTRLAVANGAAGIIVSNHGARQLDYVPATISALEEVVKAARGQLPVFVDGGVRRGTDVFKALALGAAGVFVGRPVVFSLAAAGEAGVSNVLRMLRDEFELTMALSGCTSLAEITRKHIITESDKLSAIPSRL
notes: as for B8
As to B9, the Km came out at 495 ± 75 µM in the data set “purified protein [2]” and 136 ± 19 µM in data set [4]. The kcat turned out to be 10.8 s⁻¹ in the data set “purified protein [2]” and 5.89 ± 0.14 s⁻¹ in data set [4].

B10: ZmGO1 (Zea mays; T159V) (protein)
chain: MGEITNVMEYQAIAKQKLPKMAYDYYASGAEDEWTLQENREAFSRILFRPRILIDVSKIDMTTTVLGFKISMPIMVAPTAMQKMAHPDGEYATARAAAAAGTIMTLSSWATSSVEEVASTGPGIRFFQLYVYKDRKVVEQLVRRAERAGFKAIALTVDVPRLGRREADIKNRFVLPPHLTLKNFEGLDLGKMDQAADSGLASYVAGQVDRTLSWKDVKWLQTITTLPILVKGVLTAEDTRLAVANGAAGIIVSNHGARQLDYVPATISALEEVVKAARGQLPVFVDGGVRRGTDVFKALALGAAGVFVGRPVVFSLAAAGEAGVSNVLRMLRDEFELTMALSGCTSLAEITRKHIITESDKLSAIPSRL
notes: as for B8
Take B10: in data set [4] (printed as T158V in Table 3), the Km is listed as 48 ± 36 µM and the catalytic constant (kcat) was found to be 3.22 ± 0.39 s⁻¹.

For orientation: Km means the substrate concentration at which the rate is half of its maximum. As usually defined, the kcat is the maximal rate divided by the concentration of active sites.
